# Source: PMC12305020
# Target: Tom20 (Chaetomium thermophilum) (Chaetomium thermophilum)
# Experiment: cryo-EM structure; TOM complex purified by Tom22-FLAG in GDN, with or without pALDH (maps showed no differences); core 2.7 Å and holo 3.2 Å (pALDH-incubated), core 3.2 Å and holo 3.8 Å (preprotein-free), C2 symmetry imposed
substance,measurement,value
Tom20 (Chaetomium thermophilum) (receptor),stoichiometry N,2
